Experimental findings from the supplement of paper PMC10724198 are described below.

For data set [1], the system named is Saccharomyces cerevisiae. Kind of data set: protein stability index of tFT-peptide fusion in wild type (PSI (0-1 scale)); higher = more stable (slower turnover). The following applies: genetic background: wild type. Here is the method:
(§1)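 MPS profiling in S. cerevisiae of two library types built from selected 12-aa C-degron peptides (IN1, IN2, LN1, LN3, VN2, R1-R5, W1-W3, Atg1 and Rpa12 C-termini): saturation mutagenesis libraries and C-terminal +1 capping libraries (13 aa). Each peptide is fused to the C-terminus of a sfGFP-mCherry timer, after a GGGS linker. Cells are FACS-sorted into 8 mCherry/sfGFP bins and sequenced. PSI runs from 0 (unstable) to 1 (stable), measured once in wild type and in the das1Δ or doa10Δ background.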

Data set [2] deals with Saccharomyces cerevisiae. Kind of data set: protein stability index of tFT-peptide fusion in deletion strain of DAS1 (PSI (0-1 scale)); higher = more stable (slower turnover). Here is the method: as §1
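For protein stability index of tFT-peptide fusion in deletion strain of DAS1 in this document: PSI is a weighted mean of each variant's read distribution over the sorted stability bins, computed only for variants having over 10 reads in total.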
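For protein stability index of tFT-peptide fusion in wild type in this document: PSI derived as read-weighted mean over the 8 sorting bins, only variants exceeding 10 total reads kept, mCherry placed adjacent to the peptide and sfGFP distal.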

Consider PSLARSFWRVVG, for which the values for the protein stability index in data set [1] and in data set [2] were 0.293 and 0.7, respectively.

PSNAASFWRVVG: the results for the protein stability index in data set [1] and in data set [2] were 0.162 and 0.686, respectively.

PYKRNHLIKLLN: the results for the protein stability index in data set [1] and in data set [2] were 0.141 and 0.6, respectively.

For QRGAVGGWRLVG, the protein stability index was 0.161 in data set [1] and 0.655 in data set [2].

As for RLIDPLPVQFLN, the protein stability index in data set [1] was 0.121; in data set [2], 0.62.

For the sequence RLIHPLPVQFLN, the protein stability index in data set [1] was 0.0474; in data set [2], 0.616.

Take RLINPLPVQFLN: the protein stability index in data set [1] was 0.0773; in data set [2], 0.668.

Consider RLIQILPVQFLN, for which the protein stability index stood at 0.0377 in data set [1] and 0.546 in data set [2].

As to RLIQPLAVQFLN, the values for the protein stability index in data set [1] and in data set [2] were 0.0616 and 0.6, respectively.

In the case of RLIQPLHVQFLN, the protein stability index was determined as 0.054 in data set [1] and 0.61 in data set [2].

Take RLIQPLPVFFLN: the figures for the protein stability index in data set [1] and in data set [2] were 0.0542 and 0.586, respectively.

Regarding RLIQPLPVQFLNH, the protein stability index amounted to 0.646 in data set [1] and 0.661 in data set [2].

Regarding RLIQPLPVQFLNN, the figures for the protein stability index in data set [1] and in data set [2] were 0.432 and 0.663, respectively.

With RLIQPLPVQFLNP, the protein stability index in data set [1] turned out to be 0.65; in data set [2], 0.664.

For the sequence RLIQPLPVQFLV, the protein stability index in data set [1] was found to be 0.0819; in data set [2], 0.643.

For the sequence RLIQPLPVQFLY, the values for the protein stability index in data set [1] and in data set [2] were 0.28 and 0.682, respectively.

Consider RLIQPLPVQFSN, for which the protein stability index stood at 0.591 in data set [1] and 0.601 in data set [2].

Regarding RLIQPLPVQGLN, the protein stability index in data set [1] amounted to 0.659; in data set [2] it was 0.739.

RLIQPLPVQQLN: the protein stability index in data set [1] was 0.125; in data set [2], 0.596.

As to RLIQPLPVQRLN, the protein stability index in data set [1] was determined as 0.0805; in data set [2] it was 0.643.

For the sequence RLIQPLPVRFLN, the protein stability index in data set [1] was 0.0593; in data set [2], 0.6.

Take RLIQPLQVQFLN: the protein stability index in data set [1] came out at 0.0288; in data set [2], 0.63.

Consider RLIQPWPVQFLN, for which the protein stability index came to 0.0573 in data set [1] and 0.545 in data set [2].

On to RLIQYLPVQFLN, for which the protein stability index was found to be 0.0219 in data set [1] and 0.637 in data set [2].

As to RLVQPLPVQFLN, the protein stability index came out at 0.0538 in data set [1] and 0.628 in data set [2].

Consider RVVYLSCVACIN, for which the protein stability index in data set [1] was 0.0144; in data set [2], 0.0603.

In the case of TDKRNHLIKLLN, the protein stability index in data set [1] was determined as 0.12; in data set [2], 0.577.

For VRGAVDGWRLVG, the figures for the protein stability index in data set [1] and in data set [2] were 0.156 and 0.67, respectively.

Take VRGAVGAWRLVG: the protein stability index in data set [1] was 0.144; in data set [2] it was 0.704.

Take VRGAVGGTRLVG: the protein stability index was 0.63 in data set [1] and 0.673 in data set [2].

Regarding VRGAVGGWDLVG, the protein stability index was found to be 0.664 in data set [1] and 0.656 in data set [2].

On to VRGAVGGWRLEG, for which the protein stability index in data set [1] worked out at 0.642; in data set [2], 0.69.

With VRGAVGGWRLIG, the results for the protein stability index in data set [1] and in data set [2] were 0.146 and 0.674, respectively.

For the sequence VRGAVGGWRLVC, the values for the protein stability index in data set [1] and in data set [2] were 0.143 and 0.634, respectively.

On to VRGAVGGWRLVGG, for which the values for the protein stability index in data set [1] and in data set [2] were 0.66 and 0.682, respectively.

For VRGAVGGWRLVGW, the protein stability index in data set [1] was 0.666; in data set [2], 0.668.

Take VRGAVGGWRPVG: the protein stability index in data set [1] came out at 0.667; in data set [2] it was 0.671.

For VRGAVGGWRWVG, the protein stability index is 0.144 in data set [1] and 0.682 in data set [2].

Regarding VRGAVGGWVLVG, the protein stability index was 0.202 in data set [1] and 0.659 in data set [2].

On to VRGAVGGWWLVG, for which the values for the protein stability index in data set [1] and in data set [2] were 0.455 and 0.669, respectively.

Turning to VRGAVGVWRLVG, the values for the protein stability index in data set [1] and in data set [2] were 0.16 and 0.665, respectively.

As to VRGIVGGWRLVG, the protein stability index came to 0.171 in data set [1] and 0.682 in data set [2].

Turning to VRGQVGGWRLVG, the protein stability index in data set [1] turned out to be 0.147; in data set [2] it was 0.677.

VRRAVGGWRLVG: the protein stability index in data set [1] was 0.145; in data set [2] it was 0.695.
